Measurements taken from patent publication US20110135636A1 (SYMPHOGEN A S, published 2011).
Residue numbers refer to the chain shown, from its start. Values belong to the binder of their own block, whether it stands above or below them.

How the values were obtained:
[1] = biological target: T1, wild type full length EGFR purified from A431 cells (human, UniProt P00533 25-1210); experiment: competition ELISA, competitor Ab-10; set-up: concentration or dose not given beside the values
T1 construct: mature; Bought; coated on ELISA wells; also called full length EGFR receptor antigen; Sigma E3641
Procedure: (§1) The ELISA was adapted from the descriptions published in Ditzel et al, 1995, The Journal of Immunology, Vol 154, Issue 2 893-906.
(§2) An epitope blocking ELISA was performed by diluting full length EGFR receptor antigen to 0.5 μg/ml in PBS; and coating 50 μl/ELISA well overnight at 4° C. […] Finally wells were washed four times with PBS-T and plates were developed by adding 50 μl/well TMB and read at 620 nm every 5-15-30 min. The degree of inhibition was calculated from the formula: % inhibition=(1−(OD competition/OD no competition (PBS)))×100.

[2] = biological target: T2, recombinant human EGFR extracellular domain with 6xHis (human, UniProt P00533 25-645); experiment: SPR competition, competitor Vectibix
T2 construct: In-house produced; also called 6xHis EGFR ECD; soluble human EGFR ECD; not shown: 6xHis tag
Procedure: (§3) SPR analysis was performed on a Biacore 3000 machine containing four flow cells. A CM5 Biacore chip was conjugated with 10,000 Resonance units (Ru) polyclonal anti-His antibody to flow cells 1-4 according to the manufacturer's instructions. […] Immediately after antigen injection the maximal binding of the Anti-EGFR mAb without competition was established in each flow cell during a reference run. Briefly 5 μl antibody at a concentration of 40 μg/ml was injected over all flow cells with captured EGFR followed by stripping of the antibody/antigen complex with a low pH acid wash (10 sec. contact time with 10 mM Glycine-HCl, pH2). After the determination of Anti-EGFR antibody maximal binding to each flow cell, a competition run was performed during the same Biacore cycle. Flow cells were first saturated with EGFR ECD antigen followed by injection of different reference antibodies or Anti-EGFR antibodies into separate flow cells using the same antigen saturating conditions as outlined above. This step was immediately followed by a second injection of Anti-EGFR antibody over the flow cell saturated with EGFR antigen and competition antibody to minimize the dissociation of either antigen or blocking antibody. Then the antibody/antigen complexes were stripped off with a low pH acid wash (10 sec. contact time with 10 mM Glycine-HCl, pH 2) and the whole cycle beginning with the reference run was repeated with a new Anti-EGFR antibody. The degree of inhibition of tested Anti-EGFR antibodies were determined by comparing the Ru max value of the individual Anti-EGFR antibody before and after competition by introduction of report points recorded two seconds before and after injection of each sample.

[3] = biological target: T3, Cynomolgus EGFR extracellular domain (Cynomolgus monkey (Macaca fascicularis), UniProt P55245 25-645 (rhesus entry)); experiment: ELISA on cynomolgus EGFR ECD (Example 10)
T3 construct: Cloned without signal peptide; also called Cynomolgus rEGFR ECD; Cynomolgus EGFR ECD
Procedure: To verify that tested Anti-EGFR antibodies bound equally well to both Human and Cynomolgus EGFR ECD and accordingly warranting toxicology studies in Cynomolgus monkeys, serial four fold dilutions of antibodies beginning from 1 μg/ml were tested by ELISA for binding to recombinant Human and Cynomolgus EGFR ECD proteins. […] ELISA wells were coated with 50 μl/well of full length EGFR at a concentration of 1 μg/ml in PBS overnight at 4° C. The next morning wells were washed twice with PBS-T and blocked for one hour with 100 μl PBS-T-1% BSA at room temperature, followed by wash twice in PBS-T. Next 50 μl of serially diluted Anti-EGFR antibodies and control antibodies were added to wells and incubated for one hour at room temperature. After antibody incubation wells were washed five times with PBS-T, followed by incubation with 50 μl/well Streptavidin-HRP secondary reagent diluted 1:3000 in blocking buffer and incubation at room temperature for 30 min. Finally wells were washed five times with PBS-T and plates were developed by adding 50 μL/well TMB substrate and incubated at room temperature. After incubation the reaction was stopped by addition of 1 M H₂SO₄; 100 μl/well and plates were read at OD 450 nm.

[4] = biological target: T2, recombinant human EGFR extracellular …; experiment: SPR competition, competitor 1042
Procedure: as §3

[5] = biological target: T2, recombinant human EGFR extracellular …; experiment: SPR competition, competitor Ab-5
Procedure: as §3

[6] = biological target: T2, recombinant human EGFR extracellular …; experiment: SPR competition, competitor Erbitux
Procedure: as §3

[7] = biological target: T1, wild type full length EGFR purified …; experiment: competition ELISA, competitor Ab-11; set-up: concentration or dose not given beside the values
Procedure: as §1, §2

[8] = biological target: T2, recombinant human EGFR extracellular …; experiment: SPR competition, competitor Ab-11
Procedure: as §3

[9] = biological target: T2, recombinant human EGFR extracellular …; experiment: SPR competition, competitor Ab-1
Procedure: as §3

[10] = biological target: T2, recombinant human EGFR extracellular …; experiment: SPR competition, competitor ICR10
Procedure: as §3

[11] = biological target: T1, wild type full length EGFR purified …; experiment: competition ELISA, competitor Ab-5; set-up: concentration or dose not given beside the values
Procedure: as §1, §2

[12] = biological target: T2, recombinant human EGFR extracellular …; experiment: SPR competition, competitor Vectibix; remark: listed apart in the source
Procedure: as §3

[13] = biological target: T2, recombinant human EGFR extracellular …; experiment: SPR competition, competitor 992 corr
Procedure: as §3

[14] = biological target: T1, wild type full length EGFR purified …; experiment: competition ELISA, competitor ICR10; set-up: concentration or dose not given beside the values
Procedure: as §1, §2

[15] = biological target: T1, wild type full length EGFR purified …; experiment: competition ELISA, competitor Ab-3; set-up: concentration or dose not given beside the values
Procedure: as §1, §2

[16] = biological target: T1, wild type full length EGFR purified …; experiment: competition ELISA, competitor Ab-2; set-up: concentration or dose not given beside the values
Procedure: as §1, §2

[17] = biological target: T1, wild type full length EGFR purified …; experiment: competition ELISA, competitor Ab-1; set-up: concentration or dose not given beside the values
Procedure: as §1, §2

[18] = biological target: T2, recombinant human EGFR extracellular …; experiment: SPR competition, competitor Erbitux; remark: listed apart in the source
Procedure: as §3

[19] = biological target: T2, recombinant human EGFR extracellular …; experiment: SPR competition, competitor Ab-10
Procedure: as §3

[20] = biological target: T2, recombinant human EGFR extracellular …; experiment: SPR competition, competitor Ab-3
Procedure: as §3

[21] = biological target: T2, recombinant human EGFR extracellular …; experiment: SPR competition, competitor 1449
Procedure: as §3

[22] = biological target: T2, recombinant human EGFR extracellular …; experiment: SPR competition, competitor 1284
Procedure: as §3

[23] = biological target: T2, recombinant human EGFR extracellular …; experiment: SPR competition, competitor 1030corr
Procedure: as §3

[24] = biological target: T2, recombinant human EGFR extracellular …; experiment: SPR competition, competitor 1261
Procedure: as §3

[25] = biological target: T2, recombinant human EGFR extracellular …; experiment: SPR competition, competitor 1260
Procedure: as §3

[26] = biological target: T2, recombinant human EGFR extracellular …; experiment: SPR competition, competitor 1254
Procedure: as §3

[27] = biological target: T2, recombinant human EGFR extracellular …; experiment: SPR competition, competitor 1347
Procedure: as §3

[28] = biological target: T2, recombinant human EGFR extracellular …; experiment: SPR competition, competitor 1277
Procedure: as §3

[29] = biological target: T2, recombinant human EGFR extracellular …; experiment: SPR competition, competitor 1257
Procedure: as §3

[30] = biological target: T2, recombinant human EGFR extracellular …; experiment: SPR competition, competitor 1308
Procedure: as §3

[31] = biological target: T2, recombinant human EGFR extracellular …; experiment: SPR competition, competitor 1344
Procedure: as §3

[32] = biological target: T2, recombinant human EGFR extracellular …; experiment: SPR competition, competitor 1208
Procedure: as §3

[33] = biological target: T2, recombinant human EGFR extracellular …; experiment: SPR competition, competitor 1320
Procedure: as §3

[34] = biological target: T2, recombinant human EGFR extracellular …; experiment: SPR competition, competitor 1024
Procedure: as §3

[35] = biological target: T2, recombinant human EGFR extracellular …; experiment: SPR (BIAcore 2000); IgG captured on anti-human Fc, soluble monovalent EGFR ECD injected
Procedure: Kinetic analysis of the full length IgG antibodies of the invention was performed on a BIAcore 2000, employing an assay as described in (Canziani, Klakamp, et al. 2004, Anal. Biochem, 325:301-307) allowing measurement of monovalent affinities of whole IgG molecules against soluble antigen. […] The chip surface was regenerated in between cycles by stripping the captured antibody/antigen complexes with a 10 second injection of 100 mM H₃PO₄. […] The association rate constant (ka) and dissociation constant (kd) were evaluated globally from the generated sensograms with the BIA evaluation software 4.1 provided by the manufacturer.

% inhibition [1]: 15%
% inhibition [2]: 103%
binding result [3]: binds
% inhibition [4]: 83%
% inhibition [5]: 10%
% inhibition [6]: 107%
% inhibition [7]: 7%
% inhibition [8]: -8%
% inhibition [9]: 14%
% inhibition [10]: -6%
% inhibition [11]: -7%
% inhibition [12]: 110%
% inhibition [13]: 25%
% inhibition [14]: -7%
% inhibition [15]: -29%
% inhibition [16]: 81%
% inhibition [17]: 24%
% inhibition [18]: 107%
% inhibition [19]: -4%
% inhibition [20]: 0%
% inhibition [21]: 93%
B1: antibody 1042 (antibody, human IgG1, kappa, V domains shown)
VH: QVQLQQPGAELVKPGASVKLSCKASGYTFTSHWMHWVQQRPGQGLEWIGEIHPSNGRTNYNEKFKNKATLTVDKSPSTAYMQLSSLTSEDSAVYYCARYYGYDDAMDYWGQGTSVTVSS
VL: DIVMTQAAFSNPVTLGTSASISCRSSKSLLHSNGITYLYWYLQKPGQSPQLLIYQMSNLASGVPDRFSSSGSRTDFTLRISRVEAEDVGVYYCAQNLELPYTFGGGTKLEIKR
notes: Chimeric IgG1 kappa; RA- left out of the VH entry

% inhibition [22]: 6%
% inhibition [23]: 82%
% inhibition [24]: 6%
% inhibition [2]: 96%
binding result [3]: binds
% inhibition [25]: 0%
% inhibition [26]: 102%
% inhibition [27]: 3%
% inhibition [28]: 99%
% inhibition [4]: 29%
% inhibition [6]: 44%
% inhibition [29]: 7%
% inhibition [13]: 106%
% inhibition [30]: -2%
% inhibition [31]: 4%
% inhibition [32]: 108%
% inhibition [33]: 6%
% inhibition [34]: 6%
Kd [35]: 12.7 nM
koff [35]: 0.001 s⁻¹
kon [35]: 81000 M⁻¹ s⁻¹
t1/2 [35]: 11.3 min
% inhibition [21]: 5%
B2: antibody 1254 (antibody, human IgG1, kappa, V domains shown)
VH: EVQLVESGGGLVKPGGSLKLSCAASGFAYSTYDMSWVRQTPEKRLEWVAYISSGGDAAYYPDTVKGRFTISRDNAKNTLYLQMSSLKSEDTAMYYCARSRYGNYGDAMDYWGQGTSVTVSS
VL: DVVMTQTPLSLPVSLGDQASISCRSSQSLVHSNGNTYLHWYLQKPGQSPKLLLYKVSNRFSGVPDRFSGSGSGTDFTLKISRVESEDLGVYFCSQNTHVYTFGGGTKLEIKR
notes: Chimeric IgG1 kappa; also called mAb 1254

binding result [3]: binds
B3: antibody 1277 (antibody, human IgG1, kappa, V domains shown)
VH: EVQLVESGGGLVKPGESLKLSCAASGFAFSYSDMSWVRQTPEKRLEWVAYMSSAGDVTFYSDTVKGRFTISRDNAKNTLYLQVSSLKSEDTAIYYCVRHRDVAMDYWGQGTSVTVSS
VL: B2 VL with L53I, S85A, N96S, Y100P
notes: Chimeric IgG1 kappa; also called clone 1277
